{
  "source": "patent US7445894B2",
  "about": "“Compositions and methods for detection and isolation of phosphorylated molecules” (priority 2002, dated 2008)",
  "key": {"[1]": {"system": "T1, crosstide, biotinylated synthetic peptide", "T1 sequence": "GRPRTSSFAEG"}, "phosphopeptides": {"system": "phosphopeptides", "test": "Quantitative binding of phosphopeptides using streptavidin ferrofluid particles", "conditions": "550 pmoles phosphopeptides, particles saturated with Compound 9, charged with GaCl3, eluted with 0.15 M ammonium hydroxide", "protocol": "Quantitative binding of phosphopeptides was accomplished using labeled ferrofluid particles. Streptavidin ferrofluid particles were labeled with Compound 9 until saturated. After washing away unbound dye, the particles were charged with 0.1 M GaCl3, then washed with 0.1 M NaOAc, pH 4.0. 100 μL of magnetic particles (4 mg/mL) was added with standard peptide mix containing 550 picomoles of phosphopeptides. The mixture was incubated for 20 min while gently vortexing. The particles were isolated using a magnetic separator and the resulting supernatant was removed. The beads were washed 2× with 100 μL 100 mM NaOAc, pH 4.0 and the phosphopeptides were eluted with 0.15 M ammonium hydroxide. Greater than 95% of the phosphopeptides (550 pmoles) were isolated."}, "[2]": {"system": "T2, Abl peptide (New England Biolabs), substrate for Abl tyrosine kinase", "T2 sequence": "EAIYAAPFAKKK"}, "[3]": {"system": "T3, Kemptide (non-phosphorylated)", "T3 sequence": "LRRASLG"}, "[4]": {"system": "T4, Glycogen synthase 1-10 peptide (Calbiochem)", "T4 sequence": "PLSRTLSVSS"}, "[5]": {"biological_target": "pp60 c-src (pY), phosphorylated form of the pp60 c-src peptide", "test": "peptide microarray on HydroGel slides; primary antibody, then Zenon One Alexa Fluor 647 mouse IgG labeling reagent; 632.8 nm excitation / 670 nm emission"}, "[6]": {"biological_target": "pp60 c-src (pY), phosphorylated form of the pp60 c-src peptide", "test": "peptide microarray on HydroGel slides; primary antibody at 1.5 µg/mL, then Alexa Fluor 647 goat anti-mouse; 632.8 nm excitation / 670 nm emission"}, "[7]": {"system": "Bovine muscle myosin light chain"}},
  "data": [
    {"substance": "Akt/Protein Kinase B", "values": [
      {"measurement": "fluorescent signal (Compound 2/Ga3+) of peptide charged beads, exposed to kinase against not exposed", "setting": "[1]", "value": "The fluorescent signal of the peptide charged beads exposed to Akt/PKB kinase was found to be 2.2-fold higher, with no overlap in standard deviation, than the control peptide charged beads not exposed to enzyme"}
    ]},
    {"substance": "4-(N-(5″-biotinylaminopentyl)aminocarbonyl)-rhod tetrapotassium salt [Compound 9]", "values": [
      {"measurement": "phosphopeptides isolated", "setting": "phosphopeptides", "value": "Greater than 95%"}
    ]},
    {"substance": "Abl Protein Tyrosine Kinase (NEB)", "values": [
      {"measurement": "fluorescent labeling (Compound 2/Ga3+) of arrayed peptide after kinase reaction", "setting": "[2]", "value": "Abl peptide substrate is the only fluorescently labeled peptide on the array"},
      {"measurement": "fluorescent labeling (Compound 2/Ga3+) of arrayed peptide after kinase reaction with ATP-γ-S or ATP", "setting": "[2]", "value": "Abl peptide substrate is the only fluorescently labeled peptide on the array"},
      {"measurement": "sensitivity of detection after kinase reaction", "setting": "[2]", "value": "Sensitivity of detection after kinase reaction is at least 0.18 ng or 0.14 pmol"},
      {"measurement": "sensitivity of detection after kinase reaction with ATP (control)", "setting": "[2]", "value": "0.325 pg of Abl peptide, in the control reaction using ATP, was labeled and detected"},
      {"measurement": "sensitivity of detection after kinase reaction with ATP-γ-S", "setting": "[2]", "value": "Sensitivity of detection after kinase reaction was 2.6 pg of the peptide labeled using ATP-γ-S"},
      {"measurement": "fluorescent labeling (Compound 2/Ga3+) of arrayed peptide after kinase reaction; Kemptide not labeled", "setting": "[3]", "value": "Abl peptide substrate is the only fluorescently labeled peptide on the array"},
      {"measurement": "fluorescent labeling (Compound 2/Ga3+) of arrayed peptide after kinase reaction; Glycogen Synthase 1-10 not labeled", "setting": "[4]", "value": "Abl peptide substrate is the only fluorescently labeled peptide on the array"}
    ]},
    {"substance": "phosphotyrosine monoclonal antibody P-Tyr-100 (Cell Signaling Tech.)", "values": [
      {"measurement": "sensitivity of detection", "setting": "[5]", "value": 0.65, "unit": "pg"},
      {"measurement": "sensitivity of detection", "setting": "[6]", "value": 5.2, "unit": "pg"}
    ]},
    {"substance": "Calcium-Calmodulin-Dependent protein Kinase II (New England BioLabs)", "values": [
      {"measurement": "fluorescent labeling (Compound 2/Ga3+) of arrayed peptide after kinase reaction; Abl peptide not labeled", "setting": "[2]", "value": "glycogen synthase peptide is the only fluorescently labeled peptide on the array"},
      {"measurement": "phosphoprotein stain signal (Compound 2/Ga3+) of the gel band, kinase reaction against no-enzyme control", "setting": "[7]", "value": "the signal from the band in the lane corresponding to the reaction containing the enzyme 3.4-fold greater than the no-enzyme control"},
      {"measurement": "fluorescent labeling (Compound 2/Ga3+) of arrayed peptide after kinase reaction", "setting": "[4]", "value": "glycogen synthase peptide is the only fluorescently labeled peptide on the array"},
      {"measurement": "sensitivity of detection after kinase reaction", "setting": "[4]", "value": "Sensitivity of detection after kinase reaction is at least 0.375 ng or 0.35 pmol"}
    ]}
  ]
}
